Laboratory results reported in patent publication US9260483B2, “Triazacyclononane-based phosphinate ligand and its use for molecular imaging” (TECHNISCHE UNIVERSITÄT MÜNCHEN, priority 2011, dated 2016).
Like-named read-outs stand apart in the source and are kept apart here.

Tests used:
[1] = test system: CD-1 athymic nude mice bearing human melanoma xenografts; details: mouse
in vivo = test: in vivo; parameters: species or system mice; details: CD-1 athymic nude, mouse, total radioactivity
Description: Biodistribution of ^68Ga-R3PEG4P9
Biodistribution studies were performed using CD-1 athymic nude mice bearing human melanoma xenografts on both shoulders (right: M21 cell line with high αvβ3 integrin xexpression, left: M21L cell line with low αvβ3 integrin expression). The mice were injected 6-9 MBq of ^68Ga-R3PEG4P9 (specific activity: ca. 900 GBq/μmol, corresponding to approx. 7-10 pmol of the tracer). After the specified time points (60 and 120 min, respectively), the mice were sacrificed, the organs taken out and counted in a gamma counter. For blockade, the mice were administered 200 μg (approx. 10 mg/kg) of unlabeled R3PEG4P9 10 min before tracer injection.
Data is visualized in the chart (FIG. 3).

αvβ3 integrin = biological target: T1, αvβ3 integrin (Homo sapiens, UniProt P05106+P06756); test: In vitro binding assay: displacement of 125I-echistatin on M21 human melanoma cells; details: log IC50
T1 construct: endogenous in cells; host or cells: M21 human melanoma cells

[2] = Log P determination: octanol-water partition coefficient (1-octanol/PBS) of the labelled compound
Description: Octanol-water partition coefficients were determined by addition of ca. 50 kBq of the respective labelled compound to Eppendorf cup containing each 500 μl of 1-octanol and isotonic phosphate buffered saline (PBS). After 2 min of vigorous stirring, the phases were separated by centrifugation, 100 μl aliquots of each phase taken out and the activity contained determined with a gamma counter. Each experiment was repeated 5-8 times.

T1 sequence (P06756 31-889 limits assumed): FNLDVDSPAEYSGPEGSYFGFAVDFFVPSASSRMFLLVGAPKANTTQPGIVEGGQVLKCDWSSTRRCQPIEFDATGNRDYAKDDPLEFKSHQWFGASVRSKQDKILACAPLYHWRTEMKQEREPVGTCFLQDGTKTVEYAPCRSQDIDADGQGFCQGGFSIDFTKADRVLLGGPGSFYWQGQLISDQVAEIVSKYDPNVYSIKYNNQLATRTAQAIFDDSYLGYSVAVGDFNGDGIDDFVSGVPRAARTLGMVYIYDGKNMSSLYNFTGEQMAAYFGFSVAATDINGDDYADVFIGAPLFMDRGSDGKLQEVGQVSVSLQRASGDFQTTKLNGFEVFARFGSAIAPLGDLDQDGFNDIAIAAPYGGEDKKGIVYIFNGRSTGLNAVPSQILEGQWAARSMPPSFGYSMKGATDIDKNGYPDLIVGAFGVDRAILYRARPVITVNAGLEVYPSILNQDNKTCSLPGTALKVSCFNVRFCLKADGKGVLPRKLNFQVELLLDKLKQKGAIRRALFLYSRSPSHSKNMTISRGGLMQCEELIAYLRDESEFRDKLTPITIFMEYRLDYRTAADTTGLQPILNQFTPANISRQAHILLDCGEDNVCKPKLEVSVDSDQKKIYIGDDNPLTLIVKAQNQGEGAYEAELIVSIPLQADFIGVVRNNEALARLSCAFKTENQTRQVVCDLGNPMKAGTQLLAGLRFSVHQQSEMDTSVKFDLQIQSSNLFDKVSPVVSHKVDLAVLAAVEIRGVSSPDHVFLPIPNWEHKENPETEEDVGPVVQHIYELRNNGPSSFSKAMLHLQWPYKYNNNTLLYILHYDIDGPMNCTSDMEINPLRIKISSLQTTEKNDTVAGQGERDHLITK
T1 sequence (P06756 891-1048 partner limits assumed): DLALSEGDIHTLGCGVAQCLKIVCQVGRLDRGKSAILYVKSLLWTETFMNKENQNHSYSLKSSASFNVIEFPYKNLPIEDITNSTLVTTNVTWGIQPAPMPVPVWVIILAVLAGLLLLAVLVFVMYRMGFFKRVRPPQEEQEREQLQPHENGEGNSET
T1 sequence (P05106 27-788): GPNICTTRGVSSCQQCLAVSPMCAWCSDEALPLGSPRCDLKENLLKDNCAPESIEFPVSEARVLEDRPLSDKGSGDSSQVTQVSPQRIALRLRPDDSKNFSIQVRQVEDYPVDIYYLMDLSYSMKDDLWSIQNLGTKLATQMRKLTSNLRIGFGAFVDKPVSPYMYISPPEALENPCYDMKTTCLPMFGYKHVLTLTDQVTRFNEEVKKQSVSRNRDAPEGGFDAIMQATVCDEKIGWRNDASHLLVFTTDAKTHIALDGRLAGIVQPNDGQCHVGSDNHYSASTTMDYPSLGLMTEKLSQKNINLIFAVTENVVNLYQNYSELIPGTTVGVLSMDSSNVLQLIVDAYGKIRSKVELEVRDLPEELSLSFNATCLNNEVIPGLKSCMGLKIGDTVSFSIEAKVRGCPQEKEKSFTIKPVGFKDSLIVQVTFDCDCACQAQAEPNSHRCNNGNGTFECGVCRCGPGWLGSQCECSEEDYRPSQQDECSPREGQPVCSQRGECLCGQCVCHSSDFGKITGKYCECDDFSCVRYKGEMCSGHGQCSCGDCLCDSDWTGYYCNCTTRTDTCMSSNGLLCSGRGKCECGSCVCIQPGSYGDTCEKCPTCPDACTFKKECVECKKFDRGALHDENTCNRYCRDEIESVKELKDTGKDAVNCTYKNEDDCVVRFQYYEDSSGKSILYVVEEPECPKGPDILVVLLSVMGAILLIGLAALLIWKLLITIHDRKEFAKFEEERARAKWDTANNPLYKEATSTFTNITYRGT

**Q.** With `N=C(N)NCCC[C@@H]1NC(=O)[C@H](CCCCNC(=O)CCOCCOCCOCCOCCNC(=O)CCP(=O)(O)CN2CCN(CP(=O)(O)CCC(=O)NCCOCCOCCOCCOCCC(=O)NCCCC[C@@H]3NC(=O)[C@@H](Cc4ccccc4)NC(=O)[C@H](CC(=O)O)NC(=O)CNC(=O)[C@H](CCCNC(=N)N)NC3=O)CCN(CP(=O)(O)CCC(=O)NCCOCCOCCOCCOCCC(=O)NCCCC[C@@H]3NC(=O)[C@@H](Cc4ccccc4)NC(=O)[C@H](CC(=O)O)NC(=O)CNC(=O)[C@H](CCCNC(=N)N)NC3=O)CC2)NC(=O)[C@@H](Cc2ccccc2)NC(=O)[C@H](CC(=O)O)NC(=O)CNC1=O` (single isomer, unassigned) [68Ga-R3PEG4P9, metal not drawn] as the compound, how does the “fraction of the blood activity in the plasma after centrifugation” value ([1]; in vivo) read?
**A.** 96%

**Q.** What about the “metabolites in tissue extracts, plasma and urine (radio-HPLC)” value ([1]; in vivo) of the same compound?
**A.** no metabolites could be detected

**Q.** And the tissue uptake at 1 h (in vivo; adrenal gland, 60 min, blocked, read-out: uptake % ID/g, adrenal gland)?
**A.** 0.36 %ID/g

**Q.** And the tissue uptake at 1 h (in vivo; adrenal gland, 60 min, read-out: uptake % ID/g, adrenal gland)?
**A.** 27.8 %ID/g

**Q.** And the tissue uptake at 2 h (in vivo; adrenal gland, 120 min, read-out: uptake % ID/g, adrenal gland)?
**A.** 24.2 %ID/g

**Q.** What about the tissue uptake at 1 h (in vivo; blood, 60 min, blocked (200 μg unlabeled R3PEG4P9 10 min before), read-out: uptake % ID/g, blood) of the same compound?
**A.** 0.09 %ID/g

**Q.** And the tissue uptake at 1 h (in vivo; blood, 60 min after tracer injection, read-out: uptake % ID/g, blood)?
**A.** 0.31 %ID/g

**Q.** And the tissue uptake at 2 h (in vivo; blood, 120 min after tracer injection, read-out: uptake % ID/g, blood)?
**A.** 0.16 %ID/g

**Q.** What about the tissue uptake at 1 h (in vivo; heart, 60 min, blocked, read-out: uptake % ID/g, heart) of the same compound?
**A.** 0.08 %ID/g

**Q.** What about the tissue uptake at 1 h (in vivo; heart, 60 min, read-out: uptake % ID/g, heart) of the same compound?
**A.** 1.29 %ID/g

**Q.** What about the tissue uptake at 2 h (in vivo; heart, 120 min, read-out: uptake % ID/g, heart) of the same compound?
**A.** 1.47 %ID/g

**Q.** And the tissue uptake at 1 h (in vivo; kidneys, 60 min, blocked, read-out: uptake % ID/g, kidneys)?
**A.** 1.97 %ID/g

**Q.** And the tissue uptake at 1 h (in vivo; kidneys, 60 min, read-out: uptake % ID/g, kidneys)?
**A.** 10.2 %ID/g

**Q.** And the tissue uptake at 2 h (in vivo; kidneys, 120 min, read-out: uptake % ID/g, kidneys)?
**A.** 8.63 %ID/g

**Q.** And the tissue uptake at 1 h (in vivo; large int., 60 min, blocked, read-out: uptake % ID/g, large int.)?
**A.** 0.11 %ID/g

**Q.** What about the tissue uptake at 1 h (in vivo; large int., 60 min, read-out: uptake % ID/g, large int.) of the same compound?
**A.** 2.44 %ID/g

**Q.** And the tissue uptake at 2 h (in vivo; large int., 120 min, read-out: uptake % ID/g, large int.)?
**A.** 2.27 %ID/g

**Q.** And the tissue uptake at 1 h (in vivo; liver, 60 min, blocked, read-out: uptake % ID/g, liver)?
**A.** 0.32 %ID/g

**Q.** What about the tissue uptake at 1 h (in vivo; liver, 60 min, read-out: uptake % ID/g, liver) of the same compound?
**A.** 5.18 %ID/g

**Q.** And the tissue uptake at 2 h (in vivo; liver, 120 min, read-out: uptake % ID/g, liver)?
**A.** 3.97 %ID/g

**Q.** And the tissue uptake at 1 h (in vivo; lung, 60 min, blocked, read-out: uptake % ID/g, lung)?
**A.** 0.54 %ID/g

**Q.** What about the tissue uptake at 1 h (in vivo; lung, 60 min, read-out: uptake % ID/g, lung) of the same compound?
**A.** 2.96 %ID/g

**Q.** And the tissue uptake at 2 h (in vivo; lung, 120 min, read-out: uptake % ID/g, lung)?
**A.** 2.15 %ID/g

**Q.** What about the tissue uptake at 1 h (in vivo; muscle, 60 min, blocked, read-out: uptake % ID/g, muscle) of the same compound?
**A.** 0.05 %ID/g

**Q.** What about the tissue uptake at 1 h (in vivo; muscle, 60 min, read-out: uptake % ID/g, muscle) of the same compound?
**A.** 0.95 %ID/g

**Q.** What about the tissue uptake at 2 h (in vivo; muscle, 120 min, read-out: uptake % ID/g, muscle) of the same compound?
**A.** 0.67 %ID/g

**Q.** And the tissue uptake at 1 h (in vivo; pancreas, 60 min, blocked, read-out: uptake % ID/g, pancreas)?
**A.** 0.07 %ID/g

**Q.** What about the tissue uptake at 1 h (in vivo; pancreas, 60 min, read-out: uptake % ID/g, pancreas) of the same compound?
**A.** 0.88 %ID/g

**Q.** And the tissue uptake at 2 h (in vivo; pancreas, 120 min, read-out: uptake % ID/g, pancreas)?
**A.** 0.81 %ID/g

**Q.** What about the tissue uptake at 1 h (in vivo; small int., 60 min, blocked, read-out: uptake % ID/g, small int.) of the same compound?
**A.** 0.24 %ID/g

**Q.** And the tissue uptake at 1 h (in vivo; small int., 60 min, read-out: uptake % ID/g, small int.)?
**A.** 4.92 %ID/g

**Q.** And the tissue uptake at 2 h (in vivo; small int., 120 min, read-out: uptake % ID/g, small int.)?
**A.** 3.75 %ID/g

**Q.** What about the tissue uptake at 1 h (in vivo; spleen, 60 min, blocked, read-out: uptake % ID/g, spleen) of the same compound?
**A.** 0.24 %ID/g

**Q.** What about the tissue uptake at 1 h (in vivo; spleen, 60 min, read-out: uptake % ID/g, spleen) of the same compound?
**A.** 3.38 %ID/g

**Q.** What about the tissue uptake at 2 h (in vivo; spleen, 120 min, read-out: uptake % ID/g, spleen) of the same compound?
**A.** 3.5 %ID/g

**Q.** What about the tissue uptake at 1 h (in vivo; stomach, 60 min, blocked, read-out: uptake % ID/g, stomach) of the same compound?
**A.** 0.17 %ID/g

**Q.** What about the tissue uptake at 1 h (in vivo; stomach, 60 min, read-out: uptake % ID/g, stomach) of the same compound?
**A.** 4.43 %ID/g

**Q.** And the tissue uptake at 2 h (in vivo; stomach, 120 min, read-out: uptake % ID/g, stomach)?
**A.** 3.56 %ID/g

**Q.** What about the tissue uptake at 1 h (in vivo; thyroid, 60 min, blocked, read-out: uptake % ID/g, thyroid) of the same compound?
**A.** 0.17 %ID/g

**Q.** What about the tissue uptake at 1 h (in vivo; thyroid, 60 min, read-out: uptake % ID/g, thyroid) of the same compound?
**A.** 3.27 %ID/g

**Q.** What about the tissue uptake at 2 h (in vivo; thyroid, 120 min, read-out: uptake % ID/g, thyroid) of the same compound?
**A.** 2.89 %ID/g

**Q.** And the tissue uptake at 1 h (in vivo; tumor M21 (high αvβ3), 60 min, blocked, read-out: uptake % ID/g, tumor M21)?
**A.** 0.62 %ID/g

**Q.** What about the tissue uptake at 1 h (in vivo; tumor M21 (high αvβ3), 60 min, read-out: uptake % ID/g, tumor M21) of the same compound?
**A.** 6.08 %ID/g

**Q.** And the tissue uptake at 2 h (in vivo; tumor M21 (high αvβ3), 120 min, read-out: uptake % ID/g, tumor M21)?
**A.** 4.63 %ID/g

**Q.** And the tissue uptake at 1 h (in vivo; tumor M21L (low αvβ3), 60 min, blocked, read-out: uptake % ID/g, tumor M21L)?
**A.** 0.31 %ID/g

**Q.** What about the tissue uptake at 1 h (in vivo; tumor M21L (low αvβ3), 60 min, read-out: uptake % ID/g, tumor M21L) of the same compound?
**A.** 1.48 %ID/g

**Q.** And the tissue uptake at 2 h (in vivo; tumor M21L (low αvβ3), 120 min, read-out: uptake % ID/g, tumor M21L)?
**A.** 1.7 %ID/g

**Q.** Which IC50 (αvβ3 integrin) does the source give for `N=C(N)NCCC[C@@H]1NC(=O)[C@H](CCCCNC(=O)CCOCCOCCOCCOCCNC(=O)CCP(=O)(O)CN2CCN(CP(=O)(O)CCC(=O)NCCOCCOCCOCCOCCC(=O)NCCCC[C@@H]3NC(=O)[C@H](Cc4ccccc4)NC(=O)[C@H](CC(=O)O)NC(=O)CNC(=O)[C@H](CCCNC(=N)N)NC3=O)CCN(CP(=O)(O)CCC(=O)NCCOCCOCCOCCOCCC(=O)NCCCC[C@@H]3NC(=O)[C@@H](Cc4ccccc4)NC(=O)[C@@H](CC(=O)O)NC(=O)CNC(=O)[C@@H](CCCNC(=N)N)NC3=O)CC2)NC(=O)[C@H](Cc2ccccc2)NC(=O)[C@H](CC(=O)O)NC(=O)CNC1=O` [Compound R3PEG4P9] here?
**A.** 0.0427 µM

**Q.** And the “stability in vivo (analysis of metabolites)” value [1]?
**A.** fully stable in vivo

**Q.** Which logP [2] does the source give for `N=C(N)NCCC[C@@H]1NC(=O)[C@H](CCCCNC(=O)CCOCCOCCOCCOCCOCCOCCOCCOCCNC(=O)CCP(=O)(O)CN2CCN(CP(=O)(O)CCC(=O)NCCOCCOCCOCCOCCOCCOCCOCCOCCC(=O)NCCCC[C@@H]3NC(=O)[C@@H](Cc4ccccc4)NC(=O)[C@H](CC(=O)O)NC(=O)CNC(=O)[C@H](CCCNC(=N)N)NC3=O)CCN(CP(=O)(O)CCC(=O)NCCOCCOCCOCCOCCOCCOCCOCCOCCC(=O)NCCCC[C@@H]3NC(=O)[C@@H](Cc4ccccc4)NC(=O)[C@H](CC(=O)O)NC(=O)CNC(=O)[C@H](CCCNC(=N)N)NC3=O)CC2)NC(=O)[C@@H](Cc2ccccc2)NC(=O)[C@H](CC(=O)O)NC(=O)CNC1=O` [Ga-R3PEG8P9] here?
**A.** -4.13 ± 0.16
